Consider eight molecules from US20210017275A1 (Alector, published 2021).

The target in experiment [1] is T1, human Siglec-5 expressed on human primary cells (human, UniProt O15389 17-551).
T1 construct: Endogenous receptor on human primary monocytes, dendritic cells, macrophages and neutrophils; also called CD170
T1 sequence: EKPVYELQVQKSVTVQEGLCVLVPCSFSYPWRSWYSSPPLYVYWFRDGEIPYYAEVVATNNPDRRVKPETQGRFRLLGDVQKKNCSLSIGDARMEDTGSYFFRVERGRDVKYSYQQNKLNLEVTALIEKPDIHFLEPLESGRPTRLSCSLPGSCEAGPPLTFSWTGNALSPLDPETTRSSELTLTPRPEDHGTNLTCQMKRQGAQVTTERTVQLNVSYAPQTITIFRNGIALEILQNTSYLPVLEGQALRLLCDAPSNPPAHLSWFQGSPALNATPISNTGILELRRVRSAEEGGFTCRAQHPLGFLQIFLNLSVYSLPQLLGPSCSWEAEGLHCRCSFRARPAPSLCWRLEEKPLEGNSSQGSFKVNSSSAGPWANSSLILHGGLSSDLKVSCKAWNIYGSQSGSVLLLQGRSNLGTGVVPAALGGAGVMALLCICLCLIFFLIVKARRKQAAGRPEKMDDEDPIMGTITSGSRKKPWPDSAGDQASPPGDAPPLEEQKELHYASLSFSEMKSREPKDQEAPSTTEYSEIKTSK
The experiment is described as follows: flow cytometry, human primary macrophages, 10 ug/ml mAb.
Protocol: (§1) Initial characterization of Siglec-5 antibodies involved determining their ability to bind Siglec-5 expressed on human primary monocytes, human primary macrophages, human primary dendritic cells, and human primary neutrophils. Cells were harvested, plated at 10⁶1m1 in a 96 well plate, and incubated in 100 μl PBS containing 2% FBS, 2 mM EDTA and 10 μg/ml Mab and Fc blocking reagent for 1 hour in ice. […] Cells were washed twice in cold PBS and analyze by flow cytometry on a BD FACS Canto. Data analysis and calculation of MFI values was performed with FlowJo (TreeStar) software version 10.0.7.
(§2) Binding is compared to an isotype control.

Experiment [2] deals with T1, human Siglec-5 expressed on human …. The experiment is described as follows: flow cytometry, human primary neutrophils, 10 ug/ml mAb.
Protocol: as §1, §2
The target is the same in experiment [3]. In words: flow cytometry, human primary monocytes, 10 ug/ml mAb. (In general: A flow cytometer gives signals particle by particle.)
Protocol: as §1, §2
Experiment [4] deals with T2, Human Siglec 5, Fc chimera (R&D Systems) (human, UniProt O15389 17-434, limits assumed).
T2 construct: Bought or recombinant Fc fusion; also called recombinant Siglec-5-Fc; not shown: Fc part
T2 sequence: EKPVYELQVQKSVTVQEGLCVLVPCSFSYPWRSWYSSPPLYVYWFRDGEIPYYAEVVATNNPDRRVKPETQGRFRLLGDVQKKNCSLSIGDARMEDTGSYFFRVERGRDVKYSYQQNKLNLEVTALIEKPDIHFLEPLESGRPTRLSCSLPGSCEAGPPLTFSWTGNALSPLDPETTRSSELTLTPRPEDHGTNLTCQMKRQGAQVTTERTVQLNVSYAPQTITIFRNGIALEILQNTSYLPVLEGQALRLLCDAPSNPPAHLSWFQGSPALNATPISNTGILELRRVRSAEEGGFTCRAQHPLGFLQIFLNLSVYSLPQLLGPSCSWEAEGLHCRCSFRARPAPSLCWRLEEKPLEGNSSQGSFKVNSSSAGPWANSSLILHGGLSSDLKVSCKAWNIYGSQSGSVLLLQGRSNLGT
The experiment is described as follows: RBC adhesion to plate-bound Siglec-5-Fc, 0.3 ug/ml mAb, percent of binding without antibody.

For experiment [5], the target named is T1, human Siglec-5 expressed on human …. In words: flow cytometry, human primary dendritic cells, 10 ug/ml mAb.
Protocol: as §1, §2
The target in experiment [6] is T2, Human Siglec 5, Fc chimera (R&D Systems). The experiment is described as follows: RBC adhesion to plate-bound Siglec-5-Fc, 1.0 ug/ml mAb, percent of binding without antibody.
Protocol: Siglec-5 antibodies (0.3 μg/ml or 1.0 μg/ml) were bound for one hour at RT with gentle rocking. After removal of unbound antibody, red blood cells were added to each well at a concentration of 3.0 ×10⁶ cells per ml and incubated at RT for one hour. Unbound RBCs were then carefully washed off 3X with PBS, and water was added to each well for hypotonic lysis of bound RBCs. The plate was transferred to -80° C. for 10 minutes, followed by 37° C. for 15 minutes. Bound RBCs were detected by peroxidase activity, followed by 2N sulfuric acid to stop the reaction.
Experiment [7] has as its target T3, Histidine-tagged human Siglec-5 (NovoProtein) (human, UniProt O15389 17-434, limits assumed).
T3 construct: Bought protein; also called Siglec-5-his tagged protein; not shown: histidine tag
T3 sequence: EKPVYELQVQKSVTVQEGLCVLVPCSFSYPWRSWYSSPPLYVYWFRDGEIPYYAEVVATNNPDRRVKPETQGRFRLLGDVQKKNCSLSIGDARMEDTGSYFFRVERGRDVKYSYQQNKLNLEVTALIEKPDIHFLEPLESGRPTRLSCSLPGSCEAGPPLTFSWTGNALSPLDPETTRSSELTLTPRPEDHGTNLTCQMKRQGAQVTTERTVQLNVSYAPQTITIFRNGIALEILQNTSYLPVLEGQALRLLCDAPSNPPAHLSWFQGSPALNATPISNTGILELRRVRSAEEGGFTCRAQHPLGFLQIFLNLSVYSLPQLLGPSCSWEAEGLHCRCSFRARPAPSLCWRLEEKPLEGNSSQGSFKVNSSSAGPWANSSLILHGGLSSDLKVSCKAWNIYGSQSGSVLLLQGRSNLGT
The experiment is described as follows: SPR (BiaCore T200, 25 C), mAb captured on anti-mouse IgG, 15 nM His-tagged Siglec-5, single-concentration 1:1 fit. For orientation: Surface plasmon resonance follows binding to a sensor surface in real time, without labels.

B1: anti-Siglec-5 monoclonal antibody 9B1 (antibody, IgG1, V domains shown)
VH: QVQLQQSGAELVKPGASVKLSCKASGYTFTEYTIHWVKQRSGQGLEWIGWFYPGSGSIKYNEKFKDKATLTADKSSSTVYMELSRLTSEDSAVYFCARQEEGGIGFDYWGQGTTLTVSS
VL: DVLMTQTPLSLLVSLGDQASISCRSSQSIVHSNGNTYLEWYLQKPGQSPKLLIYKVSIRFSGVPDRFSGSGSGTDFTLKISRVEAEDLGVYYCFQGSHVPWTFGGGTKLEIK
Broadly, the Kd is the free concentration of one partner at which half of the binding sites on the other are occupied at equilibrium, for simple one-to-one binding. Lower therefore signals a tighter complex. On to B1, for which the “% Positive” value in experiment [1] was found to be 94%; in experiment [2] it was 99.2%; in experiment [3] it was 97.6%; in experiment [5] it was 96.1%. Further, the MFI in experiment [1] came to 560; in experiment [2], 411; in experiment [3] it was 382; in experiment [5], 660. Also, the “Percent RBC Binding to Siglec-5” value in experiment [4] came to 29.2%; in experiment [6] it was 5.79%. In experiment [7], the affinity, expressed as Kd, was 0.069 nM.

B2: anti-Siglec-5 monoclonal antibody 11C6 (antibody, IgG1, V domains shown)
VH: QVQLQQSGAELVKPGASVKLSCKASGYTFTEYTIHWVKQRSGQGLEWIGWFYPGSGSIKYNEKFKDKATLTAVKSSSTVYMEFSRLTSEDSAVYFCARQDYDGLGFAYWGQGTLVTVSA
VL: DVLMTQTPLSLPVSLGDQASISCRSSQTIVHSNGNTYLEWYLQKPGQSPKLLIYKVSNRFSGVPDRFSGSGSGTDFTLKISRVEAEDLGVYYCFQGSHVPWTFGGGTKLEIK
notes: also called 1106
Regarding B2, the “% Positive” value in experiment [1] came out at 80.6%; in experiment [2] it was 99.7%; in experiment [3], 95.7%; in experiment [5], 86.9%. Moreover, the MFI in experiment [1] was determined as 451; in experiment [2], 500; in experiment [3], 386; in experiment [5], 402. Also, the “Percent RBC Binding to Siglec-5” value in experiment [4] was 25.4%; in experiment [6], 4.76%. This molecule also gave a Kd in experiment [7] of 0.166 nM.

B3: anti-Siglec-5 monoclonal antibody 7A5 (antibody, IgG1, V domains shown)
VH: EIQLQQSGPELVKPGASVKVSCKASGYSFTDYNMYWVKQSHGKSLEWIGYIDPYNGGTTYNQKFKGKATLTVDKSSSTAFMHLNSLTSEDSAVFYCAFYYGYYGVPYWGQGTLVTVSA
VL: DIVMIQSQKFMSTSVGDRVSVTCKASQNVDTNVAWYQQKPGQSPKALIYSASYRYSGVPDRFTGSGSGTDFTLTISNVQSEDLAEYFCQQYNSFPLTFGSGTKLEIK
For the molecule B3, the “% Positive” value in experiment [1] is 84.1%; in experiment [2] it was 94.6%; in experiment [3], 93.5%; in experiment [5] it was 90.3%. Moreover, the MFI was found to be 445 in experiment [1], 261 in experiment [2], 391 in experiment [3] and 467 in experiment [5]. The “Percent RBC Binding to Siglec-5” value in experiment [4] was 47.4%; in experiment [6] it was 6.86%. For the same molecule, binding in experiment [7] was put at a Kd of 0.112 nM.

B4: anti-Siglec-5 monoclonal antibody 8A1 (antibody, IgG1, V domains shown)
VH: EIQLQQSGPELVKPGASVKVSCKASDYAFTSYNIYWVKQSHGKSLEWIGYIDPYNGGTSYNQTFKGKATLTVDKSSSTAYMHLNSLTSEDSAVYYCAMKVGYEAMDYWGQGTSVTVSS
VL: DIVMTQSQKFMSTSVGDRVSVTCKASQNVGTYVAWYQQKPGQSPKALIYSASYRYSGVPDRFTGSGSGTDFTLNISNVQSEDLAEYFCQQFNSYPYTFGGGTKLEIK
On to B4, for which the “% Positive” value was determined as 83% in experiment [1], 89% in experiment [2], 98% in experiment [3] and 85.7% in experiment [5]. Further, the MFI is 457 in experiment [1], 219 in experiment [2], 398 in experiment [3] and 349 in experiment [5]. Moreover, the “Percent RBC Binding to Siglec-5” value in experiment [4] was found to be 19%; in experiment [6], 8%. In experiment [7], binding was put at a Kd of 0.229 nM.

B5: anti-Siglec-5 monoclonal antibody 5H2 (antibody, IgG1, V domains shown)
VH: EVQLQQSGPELVKPGASVKVSCKASGYSFTDYNMYWVKQSHGKSLEWIGYIDPYNGGTSYNQKFKGKATLTVDKSSSTAFMLLNSLTSEDSAVYYCALYYDYDGIPYWGQGTLVTVSA
VL: DIVMTQSQKFMSTSVGDRVSVTCKASQNVGTNVAWYRQKPGQSPKALIYSASYRYNGVPDRFTGSGSGTDFTLTISNVQSEDLAEYFCQQYNSYPYTFGGGTKLEIK
Consider B5, for which the “% Positive” value is 93.5% in experiment [1], 98.1% in experiment [2], 96.1% in experiment [3] and 94% in experiment [5]. Further, the MFI was 537 in experiment [1], 329 in experiment [2], 404 in experiment [3] and 515 in experiment [5]. For the same molecule, the “Percent RBC Binding to Siglec-5” value in experiment [4] worked out at 36.5%; in experiment [6], 9.94%. Moreover, binding in experiment [7] was put at a Kd of 0.184 nM.

B6: anti-Siglec-5 monoclonal antibody 10B6 (antibody, IgG1, V domains shown)
VH: EIQLQQSGPELVKPGASVKVSCKASGYSFTDYNMYWVKQSHGKSLECFGYIDPYNGGPYYNQKFKGKATLTVDKSSSTAFMHLNSLTSEDSAVYYCAFYYGYYGVPYWGQGTLVTVSA
VL: DIVMTQSQKFMSTSVGDRVSVTCKASHNVGTSVAWYQQKPGQSPKSLIYSASYRYSGVPDRFTGSGSGTDFTLTISNVQSEDLAEYFCQQYNSYPLTFGSGTKLEIK
In the case of B6, the “% Positive” value in experiment [1] worked out at 94.4%; in experiment [2] it was 94.4%; in experiment [3], 98.2%; in experiment [5], 93.6%. For the same molecule, the MFI in experiment [1] was determined as 581; in experiment [2], 253; in experiment [3], 421; in experiment [5], 607. For the same molecule, the “Percent RBC Binding to Siglec-5” value in experiment [4] is 27.5%; in experiment [6] it was 5.21%. Binding in experiment [7] was put at a Kd of 0.101 nM.

B7: anti-Siglec-5 monoclonal antibody 11H3 (antibody, IgG1, V domains shown)
VH: QVQLQQSGPELVKPGASVKVSCKASDYAFTSYNIYWVKQSHGKSLEWIGYIDPYNGGTSYNQTFKGKATLTVDKSSSTAYMHLNSLTSEDSAVYYCAMKVGYEAMDYWGQGTSVTVSS
VL: DIQMTQSQKFMSTSVGDRVSVTCKASQNVGTNVAWYQQKPGQSPKALIYSASYRYSGVPDRFTGSGSGTDFTLNISNVQSEDLAEYFCQQFNSYPYTFGGGTKLEIK
Consider B7, for which the “% Positive” value in experiment [1] stood at 84.1%; in experiment [2] it was 97.8%; in experiment [3], 95.5%; in experiment [5], 86%. In addition, the MFI came to 444 in experiment [1], 367 in experiment [2], 376 in experiment [3] and 377 in experiment [5]. For the same molecule, the “Percent RBC Binding to Siglec-5” value in experiment [4] turned out to be 38.5%; in experiment [6], 6.17%. Besides, in experiment [7], the Kd stood at 0.569 nM.

B8: anti-Siglec-5 monoclonal antibody 10F9 (antibody, IgG1, V domains shown)
VH: EIQLQQSGPELVKPGASVKVSCKASGYSFTGYNMYWVKQSHGKSFEWIGYIDPYTGGTSYNQRFKGKATLTVDKSSSTAFMHLNSLTSEDSAIYYCALFYDYDGFPYWGQGTLVTVSA
VL: DIVMTQSQKFMSTSVGDRVSVTCKASQNVDTNVAWYQQKPGQSPKALIYSASYRYSGVPDRFTGSGSGTDFTLTISNVQSEDLAEYFCQQYNSYPYTFGGGTKLEIK
As for B8, the “% Positive” value in experiment [1] was 96.2%; in experiment [2] it was 98.9%; in experiment [3], 95.3%; in experiment [5], 95.6%. Moreover, the MFI in experiment [1] is 562; in experiment [2], 371; in experiment [3], 405; in experiment [5] it was 589. Moreover, the “Percent RBC Binding to Siglec-5” value is 48.7% in experiment [4] and 6.22% in experiment [6]. In experiment [7], this molecule returned a Kd of 0.104 nM.
